According to paper PMC10976963:

Target: actin of the cytoskeleton of living U2OS cells (human (endogenous in U2OS)) (UniProt P60709)
Assay: FRAP; fluorescence recovery after photobleaching at lamellipodia of living U2OS cells expressing mEGFP-DARPins or mCherry-LifeAct, 37 °C, single-exponential fit

## mCherry-LifeAct (peptide)
  FRAP half-recovery time (τ1/2) at lamellipodia: 0.47 s
